Test results taken from paper PMC4904194, “Crystal structure of tyrosine decarboxylase and identification of key residues involved in conformational swing and substrate binding” (Scientific Reports, 2016).

Key:
[1] = target: the molecule itself; experiment: crystal structure; LbTDC/PLP complex at a molar ratio of 1:4, 0.1 M sodium cacodylate trihydrate pH 7.0, 0.1 M MgCl2, 16% PEG 4000; space group P21
[2] = target: the molecule itself; experiment: crystal structure; apo-LbTDC, sitting-drop vapor diffusion at 18 °C, 0.1 M sodium cacodylate trihydrate pH 7.5, 0.2 M MgCl2, 18% PEG 1000; space group P21

B1: Lactobacillus brevis tyrosine decarboxylase in complex with PLP, holo form (enzyme, Lactobacillus brevis CGMCC 1.2028)
chain: MEKSNRSLKDLDLNALFIGDKAENGQLYKDLLNKLVDEHLGWRKNYIPSDPNMIGPEDQNSPAFKKTVGHMKTVLDQLSERIRTESVPWHSAGRYWGHMNSETLMPALLAYNYAMLWNGNNVAYESSPATSQMEEEVGQEFARLMGYDYGWGHIVADGSLANLEGLWYARNIKSLPFAMKEVNPELVAGKSDWELLNMPTKEIMDLLENAGSQIDEVKKRSARSGKNLQRLGKWLVPQTKHYSWMKAADIIGIGLDQVVPVPIDSNYRMDIQALESIIRKYAAEKTPILGVVGVAGSTEEGAVDGIDKIVALRQKLQKEGIYFYLHVDAAYGGYARALFLDEDDQFIPYKNLQKVHAENHVFTEDKEYIKPEVYAAYKAFDQAESITIDPHKMGYVPYSAGGIVIQDIRMRDTISYFATYVFEKGADIPALLGAYILEGSKAGATAASVWAAHHTLPLNVTGYGKLEGASIEGAHRYYDFLKNLKFEVAGKRISVHPLISPDFNMVDYVLKEDGNDDLIEMNRLNHAFYEQASYVKGSLYGKEYIVSHTDFAIPDYGDSPLAFVESLGFSEVEWRHAGKVTIIRASVMTPYMNQRENFDYFAPRIKKAIQADLEKVYASVNQKENV
modifications: PLP covalently attached to the ε-amino group of K392 (internal aldimine, Schiff base)
notes: Tyrosine decarboxylase (TDC, EC 4.1.1.25) of Lactobacillus brevis CGMCC 1.2028; domains in the structure span residues 7-618; also called holo-LbTDC; LbTDC/PLP complex; source: E. coli BL21(DE3) harboring pET24a-tdc, purified (Ni2+-agarose column); crystallized with PLP at a molar ratio of 1:4
- stoichiometry N [1]: 2

B2: Lactobacillus brevis tyrosine decarboxylase, apo form (without PLP) (enzyme, Lactobacillus brevis CGMCC 1.2028)
chain: MEKSNRSLKDLDLNALFIGDKAENGQLYKDLLNKLVDEHLGWRKNYIPSDPNMIGPEDQNSPAFKKTVGHMKTVLDQLSERIRTESVPWHSAGRYWGHMNSETLMPALLAYNYAMLWNGNNVAYESSPATSQMEEEVGQEFARLMGYDYGWGHIVADGSLANLEGLWYARNIKSLPFAMKEVNPELVAGKSDWELLNMPTKEIMDLLENAGSQIDEVKKRSARSGKNLQRLGKWLVPQTKHYSWMKAADIIGIGLDQVVPVPIDSNYRMDIQALESIIRKYAAEKTPILGVVGVAGSTEEGAVDGIDKIVALRQKLQKEGIYFYLHVDAAYGGYARALFLDEDDQFIPYKNLQKVHAENHVFTEDKEYIKPEVYAAYKAFDQAESITIDPHKMGYVPYSAGGIVIQDIRMRDTISYFATYVFEKGADIPALLGAYILEGSKAGATAASVWAAHHTLPLNVTGYGKLEGASIEGAHRYYDFLKNLKFEVAGKRISVHPLISPDFNMVDYVLKEDGNDDLIEMNRLNHAFYEQASYVKGSLYGKEYIVSHTDFAIPDYGDSPLAFVESLGFSEVEWRHAGKVTIIRASVMTPYMNQRENFDYFAPRIKKAIQADLEKVYASVNQKENV
notes: Tyrosine decarboxylase (TDC, EC 4.1.1.25) of Lactobacillus brevis CGMCC 1.2028; domains in the structure span residues 7-618; A selenomethionine form was used only for phasing; also called apo-LbTDC; LbTDC; source: E. coli BL21(DE3) harboring pET24a-tdc, purified (Ni2+-agarose column)
- stoichiometry N [2]: 2
